The record followed here is patent EP4578875A1 (Ying Mai de Medical Technology (Guangdong) Co., Ltd., dated 2025).

For the test, the target named is T1, recombinant human CD3 Epsilon protein (KACTUS) (human, UniProt P07766 23-126).
T1 construct: Bought protein
Kind of test: ELISA, plate coated with 1 ug/ml recombinant human CD3 epsilon. In general terms: In an ELISA, binding on a coated surface is turned into a signal by an enzyme label.

T1 sequence (P07766 23-126): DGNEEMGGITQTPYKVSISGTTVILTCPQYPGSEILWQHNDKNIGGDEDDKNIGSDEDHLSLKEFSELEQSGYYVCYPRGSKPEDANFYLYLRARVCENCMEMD

B1: anti-Her2/anti-CD3 bispecific antibody comprising the anti-CD3 antibody mutant (mutation site VH-Y61C) (bispecific antibody)
VH: EVQLVESGGGLVQPGGSLRLSCAASGFTFSTYAMNWVRQAPGKGLEWVGRIRSKYNNYATCYADSVKDRFTISRDDSKNSLYLQMNSLKTEDTAVYYCARHGNFGNSYVSWFAYWGQGTLVTVSS
VL: QTVVTQEPSLTVSPGGTVTLTCRSSTGAVTTSNYANWVQQKPGQAPRGLIGGTNKRAPGVPARFSGSLLGDKAALTLLGAQPEDEAEYFCALWYSNLWVFGGGTKLTVL
scFv: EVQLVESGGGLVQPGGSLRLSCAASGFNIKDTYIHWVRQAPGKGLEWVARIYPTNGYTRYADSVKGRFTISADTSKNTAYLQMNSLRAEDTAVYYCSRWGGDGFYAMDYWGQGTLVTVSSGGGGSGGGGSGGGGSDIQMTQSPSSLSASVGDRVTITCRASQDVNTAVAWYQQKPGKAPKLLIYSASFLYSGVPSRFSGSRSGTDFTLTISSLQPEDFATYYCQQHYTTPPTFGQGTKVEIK
notes: also called CD3-Her2 Mutation; CD3-HER2 Mutation
For the molecule B1, the binding result is on record as “binds”.
